Measurements as given in publication PMC3335734.

Legend:
FliM-YFP (E. coli) = molecular target: T1, FliM-YFP (E. coli) (UniProt P06974)
T1 sequence: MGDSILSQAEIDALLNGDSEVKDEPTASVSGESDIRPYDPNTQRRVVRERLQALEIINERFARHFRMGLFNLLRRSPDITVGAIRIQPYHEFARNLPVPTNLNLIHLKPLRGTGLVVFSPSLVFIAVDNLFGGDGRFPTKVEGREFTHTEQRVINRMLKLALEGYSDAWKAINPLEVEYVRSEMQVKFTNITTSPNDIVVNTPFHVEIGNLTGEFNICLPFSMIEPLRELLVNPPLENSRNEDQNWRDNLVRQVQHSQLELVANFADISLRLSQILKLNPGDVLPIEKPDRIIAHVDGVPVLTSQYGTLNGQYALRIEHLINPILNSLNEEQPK

wild-type FliM (E. coli) = molecular target: T2, wild-type FliM (E. coli) (UniProt P06974)
T2 sequence: T1 sequence

CW bias of motors, bead assay, cheR cheB cells expressing FliM-YFP (FliM-YFP (E. coli)): 61%
speed of motors, bead assay, cheR cheB cells expressing FliM-YFP (FliM-YFP (E. coli)): 50.4 Hz
switching rate of motors, bead assay, cheR cheB cells expressing FliM-YFP (FliM-YFP (E. coli)): 3.8 s⁻¹
CW bias of motors, bead assay, cheR cheB cells expressing wild-type FliM (wild-type FliM (E. coli)): 58%
speed of motors, bead assay, cheR cheB cells expressing wild-type FliM (wild-type FliM (E. coli)): 51.5 Hz
switching rate of motors, bead assay, cheR cheB cells expressing wild-type FliM (wild-type FliM (E. coli)): 3.4 s⁻¹
B1: CheY-P (natural protein)
chain: MADKELKFLVVDDFSTMRRIVRNLLKELGFNNVEEAEDGVDALNKLQAGGYGFVISDWNMPNMDGLELLKTIRADGAMSALPVLMVTAEAKKENIIAAAQAGASGYVVKPFTAATLEEKLNKIFEKLGM
modifications: phosphorylated (CheY-P); residue not given
